Measurements published in publication PMC7467689.

How the values were obtained:
[1] = molecular target: coat protein of ssRNA bacteriophage AVE016 (uncultured ssRNA bacteriophage AVE016 (metagenome-derived)); test: crystal structure
[2] = molecular target: coat protein of ssRNA bacteriophage EMS014 (uncultured ssRNA bacteriophage EMS014 (metagenome-derived)); test: crystal structure

Question: “coat protein of ssRNA bacteriophage AVE016 (natural protein)” was tested. Which stoichiometry N [1] did it give?
Answer: 210 CP monomers

Question: “coat protein of ssRNA bacteriophage EMS014 (natural protein)” was tested. Which stoichiometry N [2] did it give?
Answer: 2
